In US20150266922:

Experiments:
[1] = target: SUMO1E67A, P63165
[2] = target: SUMO2, P61956
[3] = target: RanGAP
[4] = target: SUMO2D71H, P61956
[5] = target: SUMO2R61L, P61956
[6] = target: SUMO1, P63165
[7] = target: RanGAP modified with SUMO1, P63165
[8] = target: T1, SUMO1 EIL peptide SLRFLFEGQRIADNH (SEQ ID NO: 1)
T1 chain: SLRFLFEGQRIADNH

[9] = target: T2, SLRFLYEG (SEQ ID NO: 38)
T2 chain: SLRFLYEG

SUMO2, P61956, sequence (P61956 1-93): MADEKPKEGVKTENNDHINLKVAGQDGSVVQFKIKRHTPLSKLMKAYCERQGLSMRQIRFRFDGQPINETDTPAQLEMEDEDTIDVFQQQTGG
SUMO2R61L, P61956, sequence (P61956 1-93 R61L): as the sequence (P61956 1-93) above, with R61L counted along it
SUMO2D71H, P61956, sequence (P61956 other isoform, or with tags, fused parts or gaps): as the sequence (P61956 1-93) above, with D71H counted along it

B1: Dipeptidyl peptidase 9 (DPP9), recombinant wild-type (protein)
chain: MRKVKKLRLDKENTGSWRSFSLNSEGAERMATTGTPTADRGDAAATDDPAARFQVQKHSWDGLRSIIHGSRKYSGLIVNKAPHDFQFVQKTDESGPHSHRLYYLGMPYGSRENSLLYSEIPKKVRKEALLLLSWKQMLDHFQATPHHGVYSREEELLRERKRLGVFGITSYDFHSESGLFLFQASNSLFHCRDGGKNGFMVSPMKPLEIKTQCSGPRMDPKICPADPAFFSFINNSDLWVANIETGEERRLTFCHQGLSNVLDDPKSAGVATFVIQEEFDRFTGYWWCPTASWEGSEGLKTLRILYEEVDESEVEVIHVPSPALEERKTDSYRYPRTGSKNPKIALKLAEFQTDSQGKIVSTQEKELVQPFSSLFPKVEYIARAGWTRDGKYAWAMFLDRPQQWLQLVLLPPALFIPSTENEEQRLASARAVPRNVQPYVVYEEVTNVWINVHDIFYPFPQSEGEDELCFLRANECKTGFCHLYKVTAVLKSQGYDWSEPFSPGEDEFKCPIKEEIALTSGEWEVLARHGSKIWVNEETKLVYFQGTKDTPLEHHLYVVSYEAAGEIVRLTTPGFSHSCSMSQNFDMFVSHYSSVSTPPCVHVYKLSGPDDDPLHKQPRFWASMMEAASCPPDYVPPEIFHFHTRSDVRLYGMIYKPHALQPGKKHPTVLFVYGGPQVQLVNNSFKGIKYLRLNTLASLGYAVVVIDGRGSCQRGLRFEGALKNQMGQVEIEDQVEGLQFVAEKYGFIDLSRVAIHGWSYGGFLSLMGLIHKPQVFKVAIAGAPVTVWMAYDTGYTERYMDVPENNQHGYEAGSVALHVEKLPNEPNRLLILHGFLDENVHFFHTNFLVSQLIRAGKPYQLQIYPNERHSIRCPESGEHYEVTLLHFLQEYL
In the case of B1, the “hydrolysis of GP-AMC by DPP9” value [1] is reported as “this activation was not observed in the presence of SUMO1 mutated in a single amino acid: SUMO1E67A”, the “hydrolysis of GP-AMC by DPP9” value [2] is reported as “SUMO1 but not SUMO2 can regulate DPP9 activity” and the “hydrolysis of GP-AMC by DPP9” value [3] is reported as “DPP9 activity is increased when incubated with RanGAP modified by SUMO1, but not by unmodified RanGAP”. The “hydrolysis of GP-AMC by DPP9” value [4] was “DPP9 activity was increased in the presence of SUMO2 mutated in a single amino acid: D71H”, the “hydrolysis of GP-AMC by DPP9” value [5] was “This activation was not observed in the presence of SUMO2R61L” and the “hydrolysis rate of GP-AMC by DPP9” value [6] was “the hydrolysis rate of GP-AMC by DPP9 was increased in the presence of SUMO1 in comparison to control reactions”. For the same protein, the “hydrolysis of GP-AMC by DPP9” value [7] was “DPP9 activity is increased when incubated with RanGAP modified by SUMO1, but not by unmodified RanGAP” and the “hydrolysis of GP-AMC by recombinant DPP9” value [8] was “pure recombinant DPP8 and DPP9 are inhibited by the EIL peptide, also in the absence of SUMO1”.

B2: Dipeptidyl peptidase IV (DPPIV) (protein)
chain: SRKTYTLTDYLKNTYRLKLYSLRWISDHEYLYKQENNILVFNAEYGNSSVFLENSTFDEFGHSINDYSISPDGQFILLEYNYVKQWRHSYTASYDIYDLNKRQLITEERIPNNTQWVTWSPVGHKLAYVWNNDIYVKIEPNLPSYRITWTGKEDIIYNGITDWVYEEEVFSAYSALWWSPNGTFLAYAQFNDTEVPLIEYSFYSDESLQYPKTVRVPYPKAGAVNPTVKFFVVNTDSLSSVTNATSIQITAPASMLIGDHYLCDVTWATQERISLQWLRRIQNYSVMDICDYDESSGRWNCLVARQHIEMSTTGWVGRFRPSEPHFTLDGNSFYKIISNEEGYRHICYFQIDKKDCTFITKGTWEVIGIEALTSDYLYYISNEYKGMPGGRNLYKIQLSDYTKVTCLSCELNPERCQYYSVSFSKEAKYYQLRCSGPGLPLYTLHSSVNDKGLRVLEDNSALDKMLQNVQMPSKKLDFIILNETKFWYQMILPPHFDKSKKYPLLLDVYAGPCSQKADTVFRLNWATYLASTENIIVASFDGRGSGYQGDKIMHAINRRLGTFEVEDQIEAARQFSKMGFVDNKRIAIWGWSYGGYVTSMVLGSGSGVFKCGIAVAPVSRWEYYDSVYTERYMGLPTPEDNLDHYRNSTVMSRAENFKQVEYLLIHGTADDNVHFQQSAQISKALVDVGVDFQAMWYTDEDHGIASSTAHQHIYTHMSHFIKQCFSLP
With B2 the “hydrolysis of GP-AMC by DPPIV” value [9] was “It has no inhibitory effect towards DPPIV, in the concentrations measured (up to 50 µM)” and the “hydrolysis of GP-AMC by DPPIV” value [8] was “DPPIV is not inhibited by the EIL peptide, also in the presence of 13 µM peptide”.

B3: Dipeptidyl peptidase 8 (DPP8), recombinant (protein)
chain: MWKRSEQMKIKSGKCNMAAAMETEQLGVEIFETADCEENIESQDRPKLEPFYVERYSWSQLKKLLADTRKYHGYMMAKAPHDFMFVKRNDPDGPHSDRIYYLAMSGENRENTLFYSEIPKTINRAAVLMLSWKPLLDLFQATLDYGMYSREEELLRERKRIGTVGIASYDYHQGSGTFLFQAGSGIYHVKDGGPQGFTQQPLRPNLVETSCPNIRMDPKLCPADPDWIAFIHSNDIWISNIVTREERRLTYVHNELANMEEDARSAGVATFVLQEEFDRYSGYWWCPKAETTPSGGKILRILYEENDESEVEIIHVTSPMLETRRADSFRYPKTGTANPKVTFKMSEIMIDAEGRIIDVIDKELIQPFEILFEGVEYIARAGWTPEGKYAWSILLDRSQTRLQIVLISPELFIPVEDDVMERQRLIESVPDSVTPLIIYEETTDIWINIHDIFHVFPQSHEEEIEFIFASECKTGFRHLYKITSILKESKYKRSSGGLPAPSDFKCPIKEEIAITSGEWEVLGRHGSNIQVDEVRRLVYFEGTKDSPLEHHLYVVSYVNPGEVTRLTDRGYSHSCCISQHCDFFISKYSNQKNPHCVSLYKLSSPEDDPTCKTKEFWATILDSAGPLPDYTPPEIFSFESTTGFTLYGMLYKPHDLQPGKKYPTVLFIYGGPQVQLVNNRFKGVKYFRLNTLASLGYVVVVIDNRGSCHRGLKFEGAFKYKMGQIEIDDQVEGLQYLASRYDFIDLDRVGIHGWSYGGYLSLMALMQRSDIFRVAIAGAPVTLWIFYDTGYTERYMGHPDQNEQGYYLGSVAMQAEKFPSEPNRLLLLHGFLDENVHFAHTSILLSFLVRAGKPYDLQIYPQERHSIRVPESGEHYELHLLHYLQENLGSRIAALKVI
With B3 the “hydrolysis of GP-AMC by recombinant DPP8” value [8] was “pure recombinant DPP8 and DPP9 are inhibited by the EIL peptide, also in the absence of SUMO1”.
